{
  "source": "paper PMC6291252",
  "about": "(PLoS ONE, 2018)",
  "binders": {"B1": {"name": "B39 (VHH)", "VHH": "QVQLVESGGGLVQAGGSLRLSCAASGLTFSRYVMGWFRQAPGKEREFVAAITWGGTPNYADSVKGRFTISRDNSKNTQYLQMNSLKPEDTAVYYCAAGLGWDSRYSQSYNYWGQGTQVTVSS"}},
  "target": "Recombinant TcdB (aa 1751–2366), biotinylated (Clostridioides difficile; strain of …, UniProt P18177)",
  "sequence (P18177 1751-2366)": "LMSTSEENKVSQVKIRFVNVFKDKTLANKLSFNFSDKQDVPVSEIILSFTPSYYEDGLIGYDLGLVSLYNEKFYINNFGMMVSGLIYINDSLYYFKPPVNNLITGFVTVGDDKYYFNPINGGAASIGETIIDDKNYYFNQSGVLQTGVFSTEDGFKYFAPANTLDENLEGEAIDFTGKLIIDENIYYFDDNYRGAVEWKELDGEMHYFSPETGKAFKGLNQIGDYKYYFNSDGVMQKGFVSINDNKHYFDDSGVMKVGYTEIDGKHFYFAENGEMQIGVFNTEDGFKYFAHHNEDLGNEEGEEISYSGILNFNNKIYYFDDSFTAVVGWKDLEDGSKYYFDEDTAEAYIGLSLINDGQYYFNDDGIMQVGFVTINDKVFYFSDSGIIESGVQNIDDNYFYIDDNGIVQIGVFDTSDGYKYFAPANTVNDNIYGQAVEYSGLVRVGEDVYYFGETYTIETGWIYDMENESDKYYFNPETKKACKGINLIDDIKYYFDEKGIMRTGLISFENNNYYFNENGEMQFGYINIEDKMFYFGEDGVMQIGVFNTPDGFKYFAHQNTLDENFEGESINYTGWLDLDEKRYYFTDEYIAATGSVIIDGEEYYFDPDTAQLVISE",
  "assay": "SPR",
  "details": "both partners purified",
  "data": [
    {"binder": "B1", "values": [
      {"measurement": "Kd", "value": 0.07, "unit": "nM"},
      {"measurement": "koff", "value": 0.00256, "unit": "s⁻¹"},
      {"measurement": "kon", "value": "3.44e+07", "unit": "M⁻¹ s⁻¹"}
    ]}
  ]
}
